Measured values reported in the Human Domainome abundance scans (Beltran et al. 2025).
± gives the uncertainty stated by the source.

Test: abundance fitness (aPCA) (normalised: wild type 0, dead -1); higher = more abundant; growth selection in yeast, the domain comes from the species named
Conditions: Homo sapiens
For “DnaJ homolog subfamily B member 1 A49W, P25685”, the abundance fitness was -0.307 ± 0.088.
For “DnaJ homolog subfamily B member 1 A49Y, P25685”, the abundance fitness was -0.277 ± 0.18.
Substance “DnaJ homolog subfamily B member 1 A51C, P25685” has an abundance fitness of -0.755 ± 0.18.
Substance “DnaJ homolog subfamily B member 1 A51D, P25685” has an abundance fitness of -1.19 ± 0.16.
With “DnaJ homolog subfamily B member 1 A51E, P25685” the abundance fitness was -0.718 ± 0.098.
Work on “DnaJ homolog subfamily B member 1 A51F, P25685” yielded an abundance fitness of -1.49 ± 0.19.
Work on “DnaJ homolog subfamily B member 1 A51G, P25685” yielded an abundance fitness of -0.628 ± 0.061.
“DnaJ homolog subfamily B member 1 A51I, P25685” showed an abundance fitness of -0.977 ± 0.17.
With “DnaJ homolog subfamily B member 1 A51K, P25685” the abundance fitness was -0.885 ± 0.15.
In the case of “DnaJ homolog subfamily B member 1 A51L, P25685”, the abundance fitness is reported as -1.06 ± 0.082.
With “DnaJ homolog subfamily B member 1 A51M, P25685” the abundance fitness was -1.1 ± 0.085.
Substance “DnaJ homolog subfamily B member 1 A51P, P25685” has an abundance fitness of -0.488 ± 0.098.
In the case of “DnaJ homolog subfamily B member 1 A51Q, P25685”, the abundance fitness is reported as -0.755 ± 0.086.
“DnaJ homolog subfamily B member 1 A51R, P25685” showed an abundance fitness of -0.84 ± 0.067.
“DnaJ homolog subfamily B member 1 A51S, P25685” gave an abundance fitness of -0.406 ± 0.08.
Substance “DnaJ homolog subfamily B member 1 A51T, P25685” has an abundance fitness of -0.815 ± 0.071.
Substance “DnaJ homolog subfamily B member 1 A51V, P25685” has an abundance fitness of -0.915 ± 0.065.
For “DnaJ homolog subfamily B member 1 A51W, P25685”, the abundance fitness was -1.08 ± 0.096.
For “DnaJ homolog subfamily B member 1 A51Y, P25685”, the abundance fitness was -0.576 ± 0.39.
In the case of “DnaJ homolog subfamily B member 1 D4E, P25685”, the abundance fitness is reported as -0.186 ± 0.19.
With “DnaJ homolog subfamily B member 1 D4F, P25685” the abundance fitness was -0.608 ± 0.48.
Work on “DnaJ homolog subfamily B member 1 D4G, P25685” yielded an abundance fitness of -0.398 ± 0.17.
“DnaJ homolog subfamily B member 1 D4H, P25685” gave an abundance fitness of -0.236 ± 0.44.
Work on “DnaJ homolog subfamily B member 1 D4L, P25685” yielded an abundance fitness of -0.341 ± 0.23.
“DnaJ homolog subfamily B member 1 D4M, P25685” gave an abundance fitness of -0.196 ± 0.15.
For “DnaJ homolog subfamily B member 1 D4P, P25685”, the abundance fitness was -0.712 ± 0.16.
In the case of “DnaJ homolog subfamily B member 1 D4R, P25685”, the abundance fitness is reported as -0.151 ± 0.17.
Substance “DnaJ homolog subfamily B member 1 D4S, P25685” has an abundance fitness of -0.193 ± 0.19.
Substance “DnaJ homolog subfamily B member 1 D4T, P25685” has an abundance fitness of -0.207 ± 0.18.
Substance “DnaJ homolog subfamily B member 1 D4V, P25685” has an abundance fitness of -0.433 ± 0.13.
For “DnaJ homolog subfamily B member 1 D4Y, P25685”, the abundance fitness was -0.256 ± 0.19.
With “DnaJ homolog subfamily B member 1 D17A, P25685” the abundance fitness was -0.072 ± 0.096.
“DnaJ homolog subfamily B member 1 D17C, P25685” gave an abundance fitness of 0.031 ± 0.23.
In the case of “DnaJ homolog subfamily B member 1 D17E, P25685”, the abundance fitness is reported as -0.095 ± 0.1.
In the case of “DnaJ homolog subfamily B member 1 D17F, P25685”, the abundance fitness is reported as -0.183 ± 0.12.
In the case of “DnaJ homolog subfamily B member 1 D17G, P25685”, the abundance fitness is reported as -0.199 ± 0.087.
For “DnaJ homolog subfamily B member 1 D17H, P25685”, the abundance fitness was -0.182 ± 0.13.
In the case of “DnaJ homolog subfamily B member 1 D17I, P25685”, the abundance fitness is reported as -0.029 ± 0.076.
“DnaJ homolog subfamily B member 1 D17K, P25685” gave an abundance fitness of -0.287 ± 0.14.
Work on “DnaJ homolog subfamily B member 1 D17L, P25685” yielded an abundance fitness of 0.038 ± 0.072.
“DnaJ homolog subfamily B member 1 D17M, P25685” gave an abundance fitness of -0.06 ± 0.089.
Substance “DnaJ homolog subfamily B member 1 D17N, P25685” has an abundance fitness of -0.104 ± 0.12.
For “DnaJ homolog subfamily B member 1 D17P, P25685”, the abundance fitness was -0.18 ± 0.071.
Work on “DnaJ homolog subfamily B member 1 D17R, P25685” yielded an abundance fitness of -0.211 ± 0.084.
Substance “DnaJ homolog subfamily B member 1 D17S, P25685” has an abundance fitness of -0.094 ± 0.073.
In the case of “DnaJ homolog subfamily B member 1 D17T, P25685”, the abundance fitness is reported as -0.161 ± 0.11.
In the case of “DnaJ homolog subfamily B member 1 D17V, P25685”, the abundance fitness is reported as -0.059 ± 0.053.
With “DnaJ homolog subfamily B member 1 D17W, P25685” the abundance fitness was -0.142 ± 0.15.
“DnaJ homolog subfamily B member 1 D17Y, P25685” showed an abundance fitness of -0.09 ± 0.078.
“DnaJ homolog subfamily B member 1 D34A, P25685” showed an abundance fitness of 0.058 ± 0.14.
“DnaJ homolog subfamily B member 1 D34C, P25685” showed an abundance fitness of 0.009 ± 0.14.
“DnaJ homolog subfamily B member 1 D34E, P25685” showed an abundance fitness of 0.188 ± 0.33.
Work on “DnaJ homolog subfamily B member 1 D34F, P25685” yielded an abundance fitness of -0.249 ± 0.1.
“DnaJ homolog subfamily B member 1 D34G, P25685” gave an abundance fitness of -0.012 ± 0.11.
Work on “DnaJ homolog subfamily B member 1 D34H, P25685” yielded an abundance fitness of -0.008 ± 0.11.
“DnaJ homolog subfamily B member 1 D34I, P25685” gave an abundance fitness of -0.233 ± 0.1.
“DnaJ homolog subfamily B member 1 D34K, P25685” showed an abundance fitness of -0.046 ± 0.074.
With “DnaJ homolog subfamily B member 1 D34L, P25685” the abundance fitness was -0.042 ± 0.066.
With “DnaJ homolog subfamily B member 1 D34M, P25685” the abundance fitness was -0.053 ± 0.1.
Substance “DnaJ homolog subfamily B member 1 D34N, P25685” has an abundance fitness of -0.039 ± 0.17.
Work on “DnaJ homolog subfamily B member 1 D34P, P25685” yielded an abundance fitness of -0.285 ± 0.094.
In the case of “DnaJ homolog subfamily B member 1 D34Q, P25685”, the abundance fitness is reported as 0.054 ± 0.11.
In the case of “DnaJ homolog subfamily B member 1 D34R, P25685”, the abundance fitness is reported as -0.242 ± 0.089.
With “DnaJ homolog subfamily B member 1 D34S, P25685” the abundance fitness was 0.075 ± 0.061.
“DnaJ homolog subfamily B member 1 D34V, P25685” gave an abundance fitness of -0.022 ± 0.081.
Substance “DnaJ homolog subfamily B member 1 D34W, P25685” has an abundance fitness of -0.02 ± 0.15.
For “DnaJ homolog subfamily B member 1 D34Y, P25685”, the abundance fitness was -0.135 ± 0.081.
Work on “DnaJ homolog subfamily B member 1 D53A, P25685” yielded an abundance fitness of -0.036 ± 0.088.
In the case of “DnaJ homolog subfamily B member 1 D53C, P25685”, the abundance fitness is reported as -0.093 ± 0.37.
“DnaJ homolog subfamily B member 1 D53E, P25685” gave an abundance fitness of -0.398 ± 0.12.
“DnaJ homolog subfamily B member 1 D53F, P25685” showed an abundance fitness of -0.249 ± 0.19.
“DnaJ homolog subfamily B member 1 D53G, P25685” gave an abundance fitness of -0.098 ± 0.15.
“DnaJ homolog subfamily B member 1 D53H, P25685” showed an abundance fitness of -0.262 ± 0.1.
With “DnaJ homolog subfamily B member 1 D53I, P25685” the abundance fitness was -0.224 ± 0.11.
“DnaJ homolog subfamily B member 1 D53K, P25685” gave an abundance fitness of -0.067 ± 0.11.
